Patent US20210292393A1 (published 2021)
Residue numbers refer to the chain shown, from its start.

B1: antibody 537 (antibody, V domains shown)
VH: QVQLQQWGAGLLKPSETLSLTCAVYGGSFSGYYWSWIRQPPGKGLEWIGEINHSGSTNYNPSLKSRVTISVDTSKNQFSLKLSSVTAADTAVYYCARGLYYDMGGGFDYWGQGTLVTVSS
VL: not shown
B2: antibody 265 (antibody, V domains shown)
VH: EVQLVQSGAEVKKPGATVKVSCKFSGDTFSHYYIHWVQQAPGKGLEWMGLVDPQDGESEYAQKFQGKVTITADTSIDTSYLEVTSLRFDDTAFYFCATRGMSGAFDRWGQGTLVTVSS
VL: DIVMTQSPDSLAVSLGERATINCKSSQSILSTSNNKNYLAWYQQKPGQPPKLLIYWASTRESGVPDRFSGGGSGTDFTLTISSLQAEDVAVYYCQQYYRTAYTTPIYTFGQGTKLEIK
B3: antibody 546 (antibody, V domains shown)
VH: QVQLVESGGGVVQPGRSLRLSCAASGFTFSSYGMHWVRQAPGKGLEWVAVIWYDGSNKYYADSVKGRFTISRDNSKNTLYLQMNSLRAEDTAVYYCARNCGGDCVAGDGFDYWGQGTLVTVSS
VL: DIQMTQSPSSLSASVGDRVTITCRASQSISSYLNWYQQKPGKAPNLLIYAASSLQSGVPSRFSGSGSGTDFTLTISSLQPEDFATYYCQQSYSALTWTFGQGTKVEIK
B4: antibody 263 (antibody, V domains shown)
VH: EVQLVQSGAEVKKPGATVKISCKVSGYTFTDYYMHWVQQAPGKGLEWMGLVDPEDGETIYAEKFQGRVTITADTSTDTAYMELSSLRSDDTAVYYCTTDLAFTIFGGRRGFDPWGQGTLVTVSS
VL: DIQLTQSPSFLSASVGDRVTITCRASQGISSYLAWYQQKPGKAPKLLIYAASTLQSGVPSRFSGSGSGTEFTLTISSLQPEDFATYYCQQLNSYDFGQGTRLEIK
B5: antibody 514 (antibody, V domains shown)
VH: EVQLVQSGAEVKKPGATVKISCKVSGYTFTDYYMHWVQQAPGKGLEWMGLVDPEDGETIYAEKFQGRVTITADTSTDTAYMELSSLRSEDTAVYYCATDCKYDILTGHYSAGYYYYGMDVWGQGTTVTVSS
VL: DIQMTQSPSSLSASVGDRVTITCRASQGISNYLAWFQQKPGKAPKSLIYAASSLQSGVPSKFSGSGSGTDFTLTISSLQPEDFATYYCQQYNSYPFTFGGGTKVEIK
B6: antibody 533 (antibody, V domains shown)
VH: GVQLVESGGVVVQPGGSLRLSCAASGFSFDDYTMHWVRQAPGKGLEWVSLVSWDGGTTYYTDSVKGRFTISRDNSKNSLYLQMNSLRTEDTALYFCAKDSGRIVPAATFDYWGQGTLVTVSS
VL: B5 VL with P8S, G28D, N92Y, S93T, F96L
B7: antibody 536 (antibody, V domains shown)
VH: QVQLVESGGGVVQPGRSLRLSCAASGFTFSSYVMHWVRQAPGKGLEWVALISYDGSNKYYADSVKGRFTISRDNSKNTLYLQMNSLRAEDTAVYYCARGGHIRVGRYFDWLISYFDYWGQGTLVTVSS
VL: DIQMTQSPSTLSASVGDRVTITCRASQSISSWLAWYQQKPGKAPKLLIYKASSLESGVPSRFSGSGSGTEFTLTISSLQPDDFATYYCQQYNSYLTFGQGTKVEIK
B8: antibody 273 (antibody, V domains shown)
VH: QVQLVQSGAEVKKPGASVKVSCKVSGYTLTELSMHWVRQAPGKGLEWMGGFDPEDGETIYAQKFQGRVTMTEDTSTDTAYMELSSLRSEDTAVYYCATAPGYYDSSAPQPINWFDPWGQGTLVTVSS
VL: QSALTQPASVSGSPGQSITISCTGTSSDVGSYNLVSWYQQHPGKAPKLMIYEVSKRPSGVSNRFSGSKSGNTASLTISGLQAEDEADYYCCSYAGSSTLVFGGGTKLTVL
B9: antibody 527 (antibody, V domains shown)
VH: QLQLQESGPGLVKPSETLSLTCTVSGGSISSSSYYWGWIRQPPGKGLEWIGSIYYSGSTYYNPSLKSRVTISVDTSKNQFSLKLSSVTAADTAMYYCASHVVVIASSYWCFDLWGRGTLVTVSS
VL: B8 VL with S31G, L34Y, E52D, K55N, C91S, A94T, G95S, S96I, L99W
B10: antibody 516 (antibody, V domains shown)
VH: QVELQQWGAGLLKPSETLSLTCAVYGGSFSGYYWSWIRQPPGKGLEWIGEINHSGSTNYNPSLKSRVTISIDTSKNQFSLKLSSVTAADTAVYYCARGTTVTTFFAPHWYFDLWGRGTLVTVSS
VL: QSALTQPASVSGSPGQSITISCTGTSSDVGGYNYVSWYQQHPGKAPKLMIYDVSNRPSGVSNRFSGSKSGNTASLTISGLQAEDEADYYCSSYTSSSTPYVFGTGTKVTVL
B11: antibody 523 (antibody, V domains shown)
VH: EVQLVESGGVSVQPGGSLRLSCAASGFSFNTYDMHWVRQGTGKGLEWVSGIGTAGDTYYSDSVKGRCTISRDNAKNSLHLLVKSVRAADTAVYYCARGVGGIIDYWGQGTLVTVSS
VL: NFVLSQPHSVSESPGKTVTISCTGNSGSIATKYVQWFQQRPGSAPTTVIYEDNQRPSGVPDRFSGSSDSSSNSASLTISGLKTEDEAHYYCQSYHNRRWVFGGGTKLTVL
B12: antibody 522 (antibody, V domains shown)
VH: EVQLVESGGGLVQPGGSLRLSCAASGFNFSSYSMNWVRQAPGKGLEWVSYISSSSSTIYYADSVKGRFTISRDNAKNSLYLQMNSLRDEDTAVYYCARGPEWDIVVVQAENWFDPWGQGTLVTVSS
VL: SYELTQPPSVSVSPGQTARITCSGDALPKQYVYWYQQKPGQAPVLVIYKDSERPSGIPERFSGSSSGTTVTLTISGVQAEDEADYYCQSADSSGTYRGVFGGGTKLTVL
B13: antibody 543 (antibody, V domains shown)
VH: EVQLVESGGGLVQPGRSLRLSCAASGFTFHDYAMHWVRQAPGKGLEWVSGISWNSGSIGYADSVKGRFTISRDNAKNSLYLQMNSLRAEDTALYYCAKDTFGSSSWYRGDSYYYYGMDVWGQGTTVTVSS
VL: QSALTQPASVSGSPGQSITISCTGTSSDVGGYNYVSWYQQHPGKAPKLMIYEVSNRPSGVSNRFSGSKSGNTASLTISGLQAEDEADYYCSSYTSSSTQRYVVFGGGTKLTVL
B14: antibody 541 (antibody, V domains shown)
VH: QVQLVQSGAEVKKPGASVKVSCKASGYTFTSYYVHWVRQAPGQSLEWMGVISPSTGSTTYAQNFQGRVTMTRDTSTTTVYMELSSLRSEDTAVYYCARDDYYDSTRYFDLWGRGTLVTVSS
VL: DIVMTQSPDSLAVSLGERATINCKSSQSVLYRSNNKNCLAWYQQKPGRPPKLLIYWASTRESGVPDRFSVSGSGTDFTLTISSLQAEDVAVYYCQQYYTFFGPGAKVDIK
B15: antibody 281 (antibody, V domains shown)
VH: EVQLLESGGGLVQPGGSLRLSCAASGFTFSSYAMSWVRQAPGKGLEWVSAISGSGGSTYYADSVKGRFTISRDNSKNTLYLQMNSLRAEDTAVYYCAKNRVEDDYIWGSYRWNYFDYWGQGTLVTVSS
VL: QSALTQPASVSGSPGQSITISCTGTSSDVGSYNLVSWYQQHPGKAPKLMIYEVSKRPSGVSNRFSGSKSGNTASLTISGLQAEDEADYYCCSYAGSSTHVVFGGGTKLTVL
B16: antibody 264 (antibody, V domains shown)
VH: QVHLVESGGGVVQPGRSLRLSCAASGFTLTSYAMHWVRQAPGKGLEWVALISYDGSVKKYAESVKGRITVSGDNSRNTLHLQINTLRADDTAVYYCVRGGVSGPNSFDLWGQGTMVTVSS
VL: DVVMTQSPLSLPVTLGQPASISCRSSQSLEYSDGNTYVNWFQQRPGQSPRRLIYQVSNRASGVPDRFSGSGSGTDFTLQISRVEAEDVGIYYCMQGTHWPVTFGQGTKVEIK
B17: antibody 509 (antibody, V domains shown)
VH: QVQLVESGGGVVQPGRSLRLSCAASGFNLSSYAMHWVRQASGKGLEWVSLISYDGSIKYYTDSVKGRFTVSGDNSKNTLFLQMNSLRADDSALYYCVRGGVSGPNSFDLWGQGTTVTVSS
VL: B16 VL with E30V, Q55K, N58I, T77A, Q79K, I90V
B18: antibody 303 (antibody, V domains shown)
VH: B17 VH with T61A, T78M, S106A, L109I
VL: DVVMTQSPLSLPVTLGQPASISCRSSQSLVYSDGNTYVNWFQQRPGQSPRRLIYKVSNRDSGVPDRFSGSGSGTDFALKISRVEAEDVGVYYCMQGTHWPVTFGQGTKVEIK
B19: antibody 266 (antibody, V domains shown)
VH: B17 VH with S31N, A40P, A88P, L109M
VL: B16 VL with E30V, N58I, T77A, Q79K, I90V
B20: antibody 517 (antibody, V domains shown)
VH: B17 VH with S31N, L109M
VL: B16 VL with E30V, N58I, T77A, Q79K, I90V
B21: antibody 316 (antibody, V domains shown)
VH: B16 VH with S31A, G44R, E62D, N74T, R76T, I83M, T85S
VL: B16 VL with I21M, Q42H, Q55K, N58Y, A60D
B22: antibody 510 (antibody, V domains shown)
VH: QVQLQESGPGLVKPSQTLSLTCTVSGGSISSGSYYWSWIRQPAGKGLEWIGRIYTSGSTNYNPSLKSRVTISVDTSKNQFSLKLSSVTAADTAVYYCAREGQWLYRFDYWGQGTLVTVSS
VL: QSALTQPASVSGSPGQSITISCTGTSSDVGNYDLVSWYQQHPGKAPKLVIYGVTKRPSGVSNRFSGSKSGNTASLTISGLQAEDEADYYCCSYATGDTSVFGTGTKVTVL
B23: antibody 276 (antibody, V domains shown)
VH: QVQLQESGPGLVKPSQTLSLTCTVSGDSISSGGYYWSWIRQHPGKGLEWIGYIYYSGSAYYNPSLKSRVTISLDTSKNQFSLKLSSVTAADTAVYYCARDSVAGFSIFDYWGQGTLVTVSS
VL: SSELTQDPAVSVALGQTVRITCQGDSLRSYYASWYQQKPGQAPVRVIYGKNNRPSGIPDRFSGSSSGNTASLTITGAQAEDEADYYCNSWDSSGNHVVFGGGTKLTVL

Columns and labels:
[1] = target: SARS-CoV-2 full length spike protein, wild type, expressed on the surface of CHO cells (SARS-CoV-2, UniProt P0DTC2 14-1273)
[2] = target: SARS-CoV-2 full length spike protein (wild type) (SARS-CoV-2, UniProt P0DTC2 14-1273)

Binder	median fluorescence fold over isotype control [1]	median fluorescence intensity, fold over isotype control [2]
B1	4.42 fold over isotype	–
B2	–	21.4 fold over isotype
B3	19.3 fold over isotype	–
B4	–	22.5 fold over isotype
B5	1.04 fold over isotype	–
B6	4.31 fold over isotype	–
B7	2.36 fold over isotype	–
B8	–	16.9 fold over isotype
B9	10.4 fold over isotype	–
B10	3.31 fold over isotype	–
B11	5.18 fold over isotype	–
B12	9.18 fold over isotype	–
B13	13.3 fold over isotype	–
B14	1.1 fold over isotype	–
B15	–	24.3 fold over isotype
B16	–	10.3 fold over isotype
B17	10.2 fold over isotype	–
B18	–	9.59 fold over isotype
B19	–	10.3 fold over isotype
B20	10.3 fold over isotype	–
B21	–	10.7 fold over isotype
B22	1.18 fold over isotype	–
B23	–	9.24 fold over isotype
